The target in this experiment is Vδ1 chain-containing γδ TCR on γδ T cells. Nature of the experiment: cell-based or functional assay.

B1: 1245_P02_G04 (antibody, V domains shown)
VH: QVQLQQSGPGLVKPSQTLSLTCAISGDSVSSKSAAWNWIRQSPSRGLEWLGRTYYRSKWSTDYAASVKSRITINPDTSKNQLSLQLNSVTPEDTAVYYCARTWSGYVDVWGQGTLVTVSS
VL: DIQMTQSPPALSASVGDRVTITCRASQDINDWLAWYQHKPGKAPKLLIYDASSLESGVPSRFSGSGSGTEFTLTISSLQPDDFATYYCQQSYSTPQVTFGQGTRLEIK
In the case of B1, the “Killing assay (EC50 µg/ml - 2 or 3 donors)” value (from here on “Killing assay”) stood at 0.1 µg/mL and the “T cell degranulation (EC50 µg/ml - 3 donors)” value (“T cell degranulation” below) was determined as 0.002 µg/mL.

B2: 1245_P01_G06 (antibody, V domains shown)
VH: QVQLVESGGGLVKPGGSLRLSCAASGFTFSDYYMSWIRQAPGKGLEWVSYISSSGSTIYYADSVKGRFTISRDNAKNSLYLQMNSLRAEDTAVYYCARHSWNDAFDVWGQGTLVTVSS
VL: not shown
Take B2: the “T cell degranulation” value was 0.001 µg/mL.

B3: 1245_P01_E07 (antibody, V domains shown)
VH: QVQLVESGGGLVKPGGSLRLSCAASGFTFSDYYMSWIRQAPGKGLEWVSYISSSGSTIYYADSVKGRFTISRDNAKNSLYLQMNSLRAEDTAVYYCARVDYADAFDIWGQGTLVTVSS
VL: DIQMTQSPSSLSASVGDRVTIACRAGQSIGTYLNWYQQKPGKAPKLLIYVASSLQSGVPSRFSGSGSGTEFTLTISSLQPEDFATYYCQQSYSTLLTFGRGTKVEIK
With B3, the “Killing assay” value was found to be 0.06 µg/mL.

B4: 1252_P01_C08 (antibody, V domains shown)
VH: EVQLLESGGGLVQPGRSLRLSCAASGFTVSSNYMSWVRQAPGKGLEWVSVIYSGGSTYYADSVKGRFTISRDNSKNTLYLQMNSLRAEDTAVYYCASPIELGAFDIWGQGTLVTVSS
VL: SSYELTQPPSVSVAPGKTARITCGGNNIGSQSVHWYQQKPGQAPMLVIYYDSDRPSGIPERFSGSNSGNTATLTISRVEAGDEADYYCQVWDSSSDHVVFGGGTKLTVL
notes: Anti-Vδ1 antibody with a lambda light chain
Turning to B4, the “Killing assay” value was 0.02 µg/mL.

B5: 1139_P01_E04 (antibody, V domains shown)
VH: QVQLQQSGPGLVKPSQTLSLTCAISGDSVSSNSAAWNWIRQSPSRGLEWLGRTYYRSKWYNDYAVSVRSRITINPDTSKNQFSLQLNSVTPEDTAVYYCARSWNDAFDIWGQGTTVTVSS
VL: DIVMTQSPSTLSASIGDRVTITCRAGQSISTWLAWYQQKPGKAPKLLIYDASSLESGVPLRFSGSGSGTDFTLTISSLQPEDFATYYCQQSYSTPLTFGGGTKVEIK
Turning to B5, the “T cell degranulation” value turned out to be 0.005 µg/mL.

B6: 1245_P01_G09 (antibody, V domains shown)
VH: QVQLQQSGPGLVKPSQTLSLTCAISGDSVSSNSAAWNWIRQSPSRGLEWLGRTYYGSKWYNEYALSVKSRIIINPDTSKNQFSLQLNSVTPEDTAVYYCARDYYYSMDVWGQGTLVTVSS
VL: DIVMTQSPSTLSASIGDRVTITCRAGQSISTWLAWYQQKPGKAPKLLIYDASSLESGVPLRFSGSGSGTEFTLAISSLQPDDFATYYCQQSYSTPVTFGQGTKVEIK
Turning to B6, the “T cell degranulation” value is 0.001 µg/mL.
